This note sets out measurements from PMC5045929, “Norovirus-Specific Memory T Cell Responses in Adult Human Donors” (Frontiers in Microbiology, 2016).

This series concerns the molecule itself. The series is described as follows: negative-stain electron microscopy; sucrose gradient-purified VLPs from baculovirus-infected Sf9 cells, negatively stained with 3% uranyl acetate (pH 4.5), 23,000x.

B1: Norovirus GII.4 Sydney capsid protein VP1 (virus-like particles) (natural protein)
chain: MKMASSDANPSDGSAANLVPEVNNEVMALEPVVGAAIAAPVAGQQNVIDPWIRNNFVQAPGGEFTVSPRNAPGEILWSAPLGPDLNPYLSHLARMYNGYAGGFEVQVILAGNAFTAGKVIFAAVPPNFPTEGLSPSQVTMFPHIVVDVRQLEPVLIPLPDVRNNFYHYNQSNDPTIKLIAMLYTPLRANNAGDDVFTVSCRVLTRPSPDFDFIFLVPPTVESRTKPFSVPVLTVEEMTNSRFPIPLEKLFTGPSSAFVVQPQNGRCTTDGVLLGTTQLSPVNICTFRGDVTHITGSRNYTMNLASQNWNDYDPTEEIPAPLGTPDFVGKIQGVLTQTTRTDGSTRGHKATVYTGSADFAPKLGRVQFETDTDRDFEANQNTKFTPVGVIQDGGTTHRNEPQQWVLPSYSGRNTHNVHLAPAVAPTFPGEQLLFFRSTMPGCSGYPNMDLDCLLPQEWVQYFYQEAAPAQSDVALLRFVNPDTGRVLFECKLHKSGYVTVAHTGQHDLVIPPNGYFRFDSWVNQFYTLAPMGNGTGRRRAV
notes: The VP1 gene was cloned; also called GII.4 SYD VLP; GII.4-2012 (Sydney); source: Sf9 insect cells (baculovirus, pFastBac1), purified by two discontinuous sucrose gradient ultracentrifugations
B1: the binding result is given as “binds”.
